Measurements published in patent US20250270319A1.
Numbering of substitutions follows the chain as printed.

B1: anti-CD33 antibody 6C7H39 (antibody, V domains shown)
VH: EVQLVESGGGLVQPGGSLRLSCAASGFTFSEYDMLWVRQAPGKGLEWVGEIRLKSNNYVTNYAASVKGRFTISRDDTKNSVYLQMNSLKTEDTGVYYCTRAGYYVPFAYWGQGTLVTVSS
VL: QPVLTQSPSASASLGASVKLTCTLSSQHSTYTIEWYQQQPEKGPRYLMELKKEGSHSTGDGIPDRFSGSSSGAERYLTISSLQSEDEADYYCGVGVTIKEQFVYVFGGGTKLTVL
B2: anti-CD33 antibody 6C7H33 (antibody, V domains shown)
VH: B1 VH with F27S, T77S
VL: B1 VL with P2L, V3M, E41G, V96H
B3: anti-CD33 antibody 6C7H31 (antibody, V domains shown)
VH: B1 VH with F27S, T77S
VL: B1 VL
B4: anti-CD33 antibody 6C7H40 (antibody, V domains shown)
VH: B1 VH
VL: B1 VL with P2L, V3M, E41G, V96H, V105E
B5: anti-CD33 antibody 6C7H32 (antibody, V domains shown)
VH: B1 VH with F27S, T77S
VL: B1 VL with P2L, V3M, E41G, V96H, V105E
B6: anti-CD33 antibody 6C7H34 (antibody, V domains shown)
VH: B1 VH with F27S, T77S
VL: B1 VL with V3M, E41G, V96L
B7: anti-CD33 antibody 6C7H35 (antibody, V domains shown)
VH: B1 VH with D33A, T77S, A108T
VL: B1 VL

Molecular target: recombinant cynomolgus CD33 protein (NovoProtein) (cynomolgus)
Test: ELISA, plate coated with recombinant CD33

Chain of recombinant cynomolgus CD33 protein (NovoProtein) (cynomolgus) (chain, as listed by the source limits assumed): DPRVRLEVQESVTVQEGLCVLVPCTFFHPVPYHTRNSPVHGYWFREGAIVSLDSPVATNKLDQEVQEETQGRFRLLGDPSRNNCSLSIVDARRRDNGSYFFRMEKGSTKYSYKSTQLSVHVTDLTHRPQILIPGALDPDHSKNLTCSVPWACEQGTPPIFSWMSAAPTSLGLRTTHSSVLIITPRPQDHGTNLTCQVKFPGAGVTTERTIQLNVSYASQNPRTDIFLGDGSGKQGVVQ

| Relative maximal binding (cyno/human) | Binder |
| --- | --- |
| 0.02 | B1 |
| 0.01 | B2 |
| 0.02 | B3 |
| 0.03 | B4 |
| 0.01 | B5 |
| 0.01 | B6 |
| 0.04 | B7 |
